Where a chain is given by its changes, count along the chain named.
T1: full-length human APLNR (hAPLNR) (human, UniProt P35414 1-380)
T1 sequence: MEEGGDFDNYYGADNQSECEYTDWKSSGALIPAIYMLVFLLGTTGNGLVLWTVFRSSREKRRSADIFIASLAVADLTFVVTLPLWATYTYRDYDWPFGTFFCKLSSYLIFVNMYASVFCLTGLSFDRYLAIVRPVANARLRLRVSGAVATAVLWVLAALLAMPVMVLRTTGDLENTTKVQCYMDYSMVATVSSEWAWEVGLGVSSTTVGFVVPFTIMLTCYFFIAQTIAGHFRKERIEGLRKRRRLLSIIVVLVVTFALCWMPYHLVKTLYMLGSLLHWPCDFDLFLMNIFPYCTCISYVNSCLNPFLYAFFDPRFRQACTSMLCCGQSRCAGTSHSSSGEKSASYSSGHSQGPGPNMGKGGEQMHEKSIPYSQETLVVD

B1: H2aM9222N (antibody, mouse IgG2a, V domains shown)
VH: EVQLVESGGGLVQPGGSLRLSCAASGFTFSNYWMSWVRQAPGKGLEWVANIKQDGSERYYVGSVKGRFTISRGDAENSLYLQMNSLRAEDTAVYYCARDRFGYSAYDKGVRYYYGMDVWGQGTTVTVSS
VL: DIQMTQSPSSLSASVGDRVTITCRASQGIRNDLGWYQQKPGKAPKRLIYAASSLQSGVPSRFSGSGSGTEFTLTISSLQPEDFATYYCLQHNSYPRTFGQGTKVEIK
B2: H2aM9228N (antibody, mouse IgG2a, V domains shown)
VH: B1 VH with Q39L, E76K, Y106F
VL: B1 VL
B3: H2aM9232N (antibody, mouse IgG2a, V domains shown)
VH: QVKLVESGGGVVQPGRSLRLSCAASGFTFSNYVIHWVRQAPGKGLEWVAVIWYDGSNKYYADSVKGRFTISRDNSKNTLYLQMNSLRAEDTAVYYCARDRVVRGVDYYYYYGLDVWGQGTSVTVSS
VL: EIVMTQSPATLSVSPGERATLSCRASQSVRSNLAWYQQKPGQAPRLLIYGASSRATGIPARFSGTGSGTEFTLTISSLQSDDFAVYYCQQYNKWPRTFGQGTKVEIK
B4: H4H9092P (antibody, human IgG4, V domains shown)
VH: EVQLVESGGGLVKPGGSLRLSCAASGITFSNAWMSWVRQAPGKGLEWVGRIKSKVDGGTIDYAAPVKGRFTISRDDSKNTLYLQMNSLKTEDTAVYYCTTGRITMVRGVLGYWGQGTLVTVSS
VL: not shown

Tests used:
[1] = target: T1, full-length human APLNR (hAPLNR); assay: cell-based or functional assay
[2] = target: T1, full-length human APLNR (hAPLNR); assay: cell-based or functional assay; remark: listed apart in the source

| Binder | Activating EC50 (M), ratio of pERK1/2 to total ERK, CHO/hAPLNR cells [1] | also measured |
| --- | --- | --- |
| B1 | 4.79e-08 M |  |
| B2 | 6.41e-08 M |  |
| B3 |  | Inhibiting IC50 (M), ratio of pERK1/2 to total ERK, CHO/hAPLNR cells [1]: 2.09e-07 M |
| B4 |  | % Inhibition at 100 nM mAb, in the presence of 100 pM Apelin (at 10 uM Forskolin), CRE-luc [2]: 5% |
